Assay results: patent publication US20240067740A1 (NOVAROCK BIOTHERAPEUTICS, published 2024)
Where a chain is given by its changes, count along the chain named.

T1: murine TNFR2 (Mus musculus, UniProt P25119 23-474)
T1 construct: Stably overexpressed on HEK293T cells; also called mouse TNFR2
T1 sequence: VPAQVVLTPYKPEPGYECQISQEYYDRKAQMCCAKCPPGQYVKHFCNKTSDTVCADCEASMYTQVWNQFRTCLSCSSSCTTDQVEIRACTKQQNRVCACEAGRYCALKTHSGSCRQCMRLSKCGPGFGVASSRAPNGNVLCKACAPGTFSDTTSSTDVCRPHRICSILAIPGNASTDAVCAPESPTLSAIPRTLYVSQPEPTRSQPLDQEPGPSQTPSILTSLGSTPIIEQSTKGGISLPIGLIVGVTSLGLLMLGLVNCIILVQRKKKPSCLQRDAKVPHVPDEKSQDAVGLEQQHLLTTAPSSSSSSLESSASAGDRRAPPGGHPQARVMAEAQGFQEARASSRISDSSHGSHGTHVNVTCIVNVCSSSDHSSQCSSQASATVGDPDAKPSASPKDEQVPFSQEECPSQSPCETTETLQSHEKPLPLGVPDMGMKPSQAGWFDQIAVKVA

T2: human TNFR2 (Homo sapiens, UniProt P20333 23-461)
T2 construct: also called hTNFR2; TNFRSF1B
T2 sequence: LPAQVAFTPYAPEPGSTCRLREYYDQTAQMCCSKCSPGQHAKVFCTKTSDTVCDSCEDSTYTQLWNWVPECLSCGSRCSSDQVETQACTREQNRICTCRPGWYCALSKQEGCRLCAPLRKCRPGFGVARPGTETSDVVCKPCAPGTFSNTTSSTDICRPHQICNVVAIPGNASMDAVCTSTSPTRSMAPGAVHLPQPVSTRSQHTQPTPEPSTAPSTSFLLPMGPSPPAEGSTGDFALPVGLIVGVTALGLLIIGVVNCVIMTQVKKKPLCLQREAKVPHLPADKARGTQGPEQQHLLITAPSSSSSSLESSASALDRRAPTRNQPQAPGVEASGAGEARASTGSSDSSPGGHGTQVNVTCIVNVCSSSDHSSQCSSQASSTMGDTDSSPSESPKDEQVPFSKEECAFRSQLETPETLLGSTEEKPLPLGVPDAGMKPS

T3: human TNFR1 (Homo sapiens, UniProt P19438 30-455)
T3 construct: Stably overexpressed on CHO-K1 cells; also called TNFRSF1A; p55
T3 sequence: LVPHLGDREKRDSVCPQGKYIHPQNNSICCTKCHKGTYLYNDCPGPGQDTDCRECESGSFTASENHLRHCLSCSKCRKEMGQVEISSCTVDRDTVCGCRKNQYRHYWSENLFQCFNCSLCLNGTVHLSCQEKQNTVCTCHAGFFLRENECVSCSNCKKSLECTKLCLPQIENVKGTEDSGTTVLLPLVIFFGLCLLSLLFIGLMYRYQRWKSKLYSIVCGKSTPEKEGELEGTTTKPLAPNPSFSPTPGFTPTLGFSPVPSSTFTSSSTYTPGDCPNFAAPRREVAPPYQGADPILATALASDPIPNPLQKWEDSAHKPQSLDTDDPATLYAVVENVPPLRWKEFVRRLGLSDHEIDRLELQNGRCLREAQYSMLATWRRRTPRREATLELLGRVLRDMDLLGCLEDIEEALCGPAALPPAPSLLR

T4: cynomolgus TNFR2 (Macaca fascicularis, UniProt P20333 23-461 (human entry))
T4 construct: Stably overexpressed on HEK293T cells; also called cynoTNFR2
T4 chain: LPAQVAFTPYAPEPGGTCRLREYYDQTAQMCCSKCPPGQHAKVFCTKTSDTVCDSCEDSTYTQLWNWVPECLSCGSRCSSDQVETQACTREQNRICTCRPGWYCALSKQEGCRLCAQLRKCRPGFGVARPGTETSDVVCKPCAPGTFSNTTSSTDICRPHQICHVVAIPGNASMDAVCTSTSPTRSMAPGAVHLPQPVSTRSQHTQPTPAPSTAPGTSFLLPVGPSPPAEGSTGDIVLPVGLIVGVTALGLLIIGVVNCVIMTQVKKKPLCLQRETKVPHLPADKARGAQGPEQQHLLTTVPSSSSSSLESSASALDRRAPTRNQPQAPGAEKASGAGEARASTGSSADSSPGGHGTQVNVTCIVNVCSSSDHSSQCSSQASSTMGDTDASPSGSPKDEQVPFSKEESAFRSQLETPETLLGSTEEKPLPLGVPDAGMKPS

B1: R2_mAb-5 (antibody, V domains shown)
VH: QVQLVQSGAEVKKPGASVTVSCKASGYTFSTYGIIWVRQAPGQGLEWMGWISAFNGNANSAQKLQDRVTMTTDTSTSTAYMELRSLRSDDTAVYYCARGEDFFDYWGQGTLVTVSS
VL: DIVMTQTPLSSPVTLGQPASISCRSSQSLVHSDGNTYLSWLQQRPGQPPRLLIYKVSSRFSGVPDRFSGSGAGTDFTLKISRVEAEDVGVYYCTQSTQFPFTFGRGTKLEIK
notes: also called R2-5
B2: R2_mAb-6 (antibody, V domains shown)
VH: QVQLVQSGAEVKKPGASVKVSCKASGYTFLSYGLSWVRQAPGQGLEWMGWINAYNGNTNYAQNLQDRVTMTTDTSTSTAYMELRSLRSDDMAVYYCARWDILTAYYSSDAFDIWGQGTMVTVSS
VL: B1 VL with S39N, S58N, S96T, F101I, R105Q, K108R
notes: also called R2-6
B3: R2_mAb-4 (antibody, V domains shown)
VH: QVQLVQSGAEVRKPGASVKVSCKASGYTFTSYSVTWVRQAPGQGLEWMGWINAFSGNTHYAQNLQDRVTMTTDTSTSTAYMELRSLRSDDTAVYYCAREEGSGSYEDYYGMDVWGQGTTVTVSS
VL: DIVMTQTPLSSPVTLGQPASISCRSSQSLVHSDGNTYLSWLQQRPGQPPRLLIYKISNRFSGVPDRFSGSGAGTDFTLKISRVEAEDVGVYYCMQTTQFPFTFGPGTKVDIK
notes: also called R2-4
B4: R2_mAb-1 (antibody, V domains shown)
VH: QVQLVESGGGVVQPGRSLRLSCAASGFTFSSYGMHWVRQAPGKGLEWVAVIWFDEDNKDYADSVKGRFTISRDNSKNTLYLQMSSLRAEDTAVYYCARDNDILTGYYYYYGMDVWGQGTTVTVSS
VL: DIQLTQSPSFLSASVGDRVTITCRASQDISSYLAWYQQKPGKAPKLLIYAASTLQSGVPSRFSGSGSGTEFTLTISSLQPEDFATYYCQQLNSYPPTFGQGTKVEIK
notes: also called R2-1
B5: R2_mAb-2 (antibody, V domains shown)
VH: QVQLVQSGPEVKKPGASVKVSCKASGYTFTNYGISWVRQAPGQGLEWMGWINAYNGNTNYAQKLQGRVTMTTDTSTSTAYMELRSLRSDDTAVYYCARDGGYGSGTYHNDYYYYYGMDVWGQGTTVTVSS
VL: EIVLTQSPDFQSMTPEEKVTITCRASQSIGSNLHWYQQKPDQSPKLLIKFASQSISGVPSRFSGSGSGTDFTLTINSLEAEDAATYYCHQSSSLPFTFGPGTKVDIK
notes: also called R2-2
B6: R2_mAb-3 (antibody, V domains shown)
VH: QVQLQESGPGLVKPSETLSLTCTVSGGSISSYYWSWIRQAPGKGLEWIGYIYYSGSTNYNPSLKSRVTISVDTSKNQFSLKLSSVTAADTAVYYCARDDGSSDYGMDVWGQGTTVTVSS
VL: AIQLTQSPSSLSASVGDRVTITCRASQGISSALAWYQQKPGKAPKLLIYDASSLESGVPSRFTGSGTDFTLTISSLQPEDFATYYCQQFNNYMYTFGQGTKLEIK
notes: also called R2-3

These binders were tested against T1, murine TNFR2 (assay: flow cytometry on HEK293T cells stably overexpressing murine TNFR2).
Procedure: (§1) HEK293T cells stably overexpressing human TNFR2, cynomolgus TNFR2, or murine TNFR2 were aliquoted in FACS buffer and incubated with serial dilutions of TNFR2 antibody for 2 hours.
(§2) The concentration-response was fitted to a four-parameter logistic non-linear regression model in the GraphPad Prism software to obtain the EC₅₀ values.
B1: no binding (tested: up to 10 (unit cut off in the text)).
B2: no binding (tested: up to 10 (unit cut off in the text)).
B3: no binding (tested: up to 10 (unit cut off in the text)).
B4: no binding (tested: up to 10 (unit cut off in the text)).
B5: no binding (tested: up to 10 (unit cut off in the text)).
B6: no binding (tested: up to 10 (unit cut off in the text)).

What follows are binders tested against T2, human TNFR2 (assay: flow cytometry on HEK293T cells stably overexpressing human TNFR2, Alexa Fluor 647 secondary antibody).
Procedure: (§3) HEK293T cells stably overexpressing human TNFR2 or CHO-K1 stably overexpressing human TNFR1 were aliquoted in FACS buffer and incubated with serial dilutions of TNFR2 antibody. […] Following an incubation, the reactions were subsequently analyzed by flow cytometry. […] The concentration-response was fitted to a four-parameter logistic non-linear regression model in the GraphPad Prism software to obtain the EC₅₀ values.
In the case of B1, the “EC50 (read off the curve)” value is reported as roughly 100 pM.
In the case of B2, the “EC50 (read off the curve)” value is reported as roughly 100 pM.
B3 was tested, and the “EC50 (read off the curve)” value was roughly 100 pM.
B4 was tested, and the “EC50 (read off the curve)” value was roughly 100 pM.
For B5, the “EC50 (read off the curve)” value was roughly 300 pM.
With B6 the “EC50 (read off the curve)” value was roughly 400 pM.

The binders below were run against T2, human TNFR2 (assay: binding to cells stably overexpressing human TNFR2, serial dilutions, flow cytometry or imaging).
Procedure: as §3
For B1, the EC50 was 100 pM.
Work on B2 yielded an EC50 of 140 pM.
Work on B3 yielded an EC50 of 110 pM.
With B4 the EC50 was 100 pM.
B5 gave an EC50 of 350 pM.
In the case of B6, the EC50 is reported as 380 pM.

Each binder was assayed against T3, human TNFR1 (assay: flow cytometry on CHO-K1 cells stably overexpressing human TNFR1).
Procedure: as §3
B1: no binding (tested: up to 10 µg/mL).
B2: no binding (tested: up to 10 µg/mL).
B3: no binding (tested: up to 10 µg/mL).
B4: no binding (tested: up to 10 µg/mL).
B5: no binding (tested: up to 10 µg/mL).
B6: no binding (tested: up to 10 µg/mL).

Target: T4, cynomolgus TNFR2
Experiment: flow cytometry on HEK293T cells stably overexpressing cynomolgus TNFR2
Procedure: as §1, §2
B1: binds.
B2: binds.
B3: binds.
B4: binds.
B5: binds.

Each binder was assayed against T2, human TNFR2 (assay: image binding assay on adherent HEK293T cells overexpressing human TNFR2 (384-well plate)).
Procedure: as §3
For B1, the “EC50 (read off the curve)” value was roughly 100 pM.
With B3 the “EC50 (read off the curve)” value was roughly 200 pM.
